The target in one assay is T1, IL10Rα-Fc fusion protein (human, UniProt Q13651 22-235).
T1 construct: Bought from R&D Systems; also called human IL10Rα
T1 sequence (looked up): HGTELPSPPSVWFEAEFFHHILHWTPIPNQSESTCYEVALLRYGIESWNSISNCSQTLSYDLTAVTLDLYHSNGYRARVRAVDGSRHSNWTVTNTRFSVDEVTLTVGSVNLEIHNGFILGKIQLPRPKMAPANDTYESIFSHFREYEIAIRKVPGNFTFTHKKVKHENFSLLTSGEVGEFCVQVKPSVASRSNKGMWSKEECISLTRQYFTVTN
The assay is described as follows: ELISA, IL10Rα-Fc immobilised (1 µg/mL).

Assay [1] concerns the target T2, recombinant human PD-L1-mFc fusion protein (human, UniProt Q9NZQ7 19-238).
T2 construct: also called hPD-L1; huPD-L1
Kind of assay: competition ELISA, PD-L1 immobilised, competitor biotin-PD-1-Fc (30 µg/mL).
Method: To test the competition activity, serial dilutions of anti-PD-L1 or anti-PD-L1/IL10 fusion proteins were added.
A recombinant human PD-L1-mFc fusion protein (1 μg/mL), recombinant cynomolgus PD-L1 (1 μg/mL; Sino Biological), or an IL10Rα-Fc fusion protein (1 μg/mL, R&D Systems) were immobilized on 96 well microtiter plate at a concentration of 1 μg/ml in Coating Solution (SeraCare) overnight at 4° C. The wells were washed with wash solution (0.05% Tween20 in imidazole-buffered saline) and blocked with 1% BSA. Serial dilutions of anti-PD-L1 or anti-PD-L1/IL10 fusion proteins were added to wells. After incubation at 37° C. for 1 hr, the wells were washed with wash solution. Peroxidase-conjugated Goat anti-human kappa Light chain antibody (Sigma) was applied to each well at 37° C. for 1 h incubation. […] After washing, the wells were developed with TMB substrate for 5-10 min at RT and then stopped with 1 N HCl. Thereafter, absorbance was measured at 450 nm and 650 nm. EC50 and IC50 values were calculated using GraphPad Prism7.

Assay [2] deals with T2, recombinant human PD-L1-mFc fusion …. The assay is described as follows: ELISA, human PD-L1-mFc immobilised (1 µg/mL), anti-human kappa-HRP detection.
Method: (§1) The wells were washed with wash solution (0.05% Tween20 in imidazole-buffered saline) and blocked with 1% BSA. […] After incubation at 37° C. for 1 hr, the wells were washed with wash solution. Peroxidase-conjugated Goat anti-human kappa Light chain antibody (Sigma) was applied to each well at 37° C. for 1 h incubation. […] After washing, the wells were developed with TMB substrate for 5-10 min at RT and then stopped with 1 N HCl. Thereafter, absorbance was measured at 450 nm and 650 nm. EC50 and IC50 values were calculated using GraphPad Prism7.
Assay [3] concerns the target PD-L1 on PD-L1-presenting U2OS bioassay cells (UniProt Q9NZQ7 19-290). The assay is described as follows: cell-based or functional assay.
The target in assay [4] is T3, recombinant human PD-L1-His (human, UniProt Q9NZQ7 19-238).
T3 construct: Analyte of the BLI assay; also called hPD-L1
T3 sequence (Q9NZQ7 19-238): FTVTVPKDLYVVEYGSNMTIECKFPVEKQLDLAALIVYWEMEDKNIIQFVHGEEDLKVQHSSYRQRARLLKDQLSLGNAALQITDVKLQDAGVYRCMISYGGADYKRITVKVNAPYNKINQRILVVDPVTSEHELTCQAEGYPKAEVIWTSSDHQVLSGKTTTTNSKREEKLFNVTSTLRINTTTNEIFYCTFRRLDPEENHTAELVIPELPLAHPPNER
Kind of assay: BLI (Octet RED96), antibody captured on AHC biosensor, PD-L1-His in solution, 1:1 model.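 Further: rates obtained by 1:1 Langmuir fitting of the binding response, using a 2.5 min association phase then a 5 min dissociation phase.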
Method: Rate constants were calculated by curve fitting analyses (1:1 Langmuir model) of binding response with a 2.5-minute association and 5-minute dissociation interaction time.

Chain of PD-L1 on PD-L1-presenting U2OS bioassay cells (Q9NZQ7 19-290): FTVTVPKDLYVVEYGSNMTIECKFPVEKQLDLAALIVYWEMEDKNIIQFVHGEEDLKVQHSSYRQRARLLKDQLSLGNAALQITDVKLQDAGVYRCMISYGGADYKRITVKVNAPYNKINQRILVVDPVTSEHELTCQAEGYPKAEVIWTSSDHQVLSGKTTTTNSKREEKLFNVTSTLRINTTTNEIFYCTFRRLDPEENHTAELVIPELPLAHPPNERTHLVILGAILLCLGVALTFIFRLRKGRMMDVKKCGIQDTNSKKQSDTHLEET
T2 sequence (Q9NZQ7 19-238): as the sequence (Q9NZQ7 19-238) above
Method for IL10Rα-Fc fusion protein: as §1

B1: Atezolizumab/IL10 (antibody)
heavy: not shown
light: DIQMTQSPSSLSASVGDRVTITCRASQDVSTAVAWQQKPGKAPKLLIYSASFLYSGVPSRFSGSGSGTDFTLTISSLQPEDFATYYCQQYLYHPATFGQGTKVEIKRRTVAAPSVFIFPPSDEQLKSGTASVVCLLNNFYPREAKVQWKVDNALQSGNSQESVTEQDSKDSTYSLSSTLTLSKADYEKHKVYACEVTHQGLSSPVTKSFNRGEC
Consider B1, for which the figures for the EC50 (with IL10Rα-Fc fusion protein; in assay [2]) were 87.2 nM and 0.0865 nM, respectively. Besides, in assay [1], the IC50 was found to be 0.124 nM.

B2: PHS102.YT7A (antibody, human IgG1, kappa, N297A)
heavy: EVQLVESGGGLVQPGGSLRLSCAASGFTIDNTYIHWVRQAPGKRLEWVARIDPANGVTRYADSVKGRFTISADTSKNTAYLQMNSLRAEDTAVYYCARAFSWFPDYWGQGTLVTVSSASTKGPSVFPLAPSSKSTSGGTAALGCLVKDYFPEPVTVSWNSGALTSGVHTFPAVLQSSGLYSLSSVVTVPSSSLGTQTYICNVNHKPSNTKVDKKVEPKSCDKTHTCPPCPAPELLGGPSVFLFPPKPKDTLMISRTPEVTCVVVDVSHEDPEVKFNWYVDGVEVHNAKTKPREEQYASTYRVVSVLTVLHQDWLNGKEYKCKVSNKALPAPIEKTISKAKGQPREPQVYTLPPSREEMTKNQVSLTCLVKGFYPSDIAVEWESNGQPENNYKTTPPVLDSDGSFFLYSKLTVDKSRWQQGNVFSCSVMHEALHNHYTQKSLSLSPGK
light: DIQMTQSPSSLSASVGDRVTITCRAGQDVYKAVAWYQQKPGKAPKLLIYWSTNLYSGVPSRFSGSGSGTDFTLTISSLQPEDFATYYCQQYGIAPPTFGQGTKVEIKRTVAAPSVFIFPPSDEQLKSGTASVVCLLNNFYPREAKVQWKVDNALQSGNSQESVTEQDSKDSTYSLSSTLTLSKADYEKHKVYACEVTHQGLSSPVTKSFNRGEC
notes: full-length human IgG1-N297A / kappa
B2: the “IC50, blocking PD-1/PD-L1 signaling (PathHunter PD-1 Signaling Bioassay, U2OS PD-L1 cells + Jurkat PD-1 signaling cells)” value (from here on “IC50, blocking PD-1/PD-L1 signaling”) in assay [3] was 6.07 nM. In addition, in assay [4], the Kd was determined as 1.99 nM, the koff was found to be 0.000603 s⁻¹ and the kon turned out to be 303000 M⁻¹ s⁻¹.

B3: PHS102/IL10 (antibody, human IgG1, kappa, N297A)
heavy: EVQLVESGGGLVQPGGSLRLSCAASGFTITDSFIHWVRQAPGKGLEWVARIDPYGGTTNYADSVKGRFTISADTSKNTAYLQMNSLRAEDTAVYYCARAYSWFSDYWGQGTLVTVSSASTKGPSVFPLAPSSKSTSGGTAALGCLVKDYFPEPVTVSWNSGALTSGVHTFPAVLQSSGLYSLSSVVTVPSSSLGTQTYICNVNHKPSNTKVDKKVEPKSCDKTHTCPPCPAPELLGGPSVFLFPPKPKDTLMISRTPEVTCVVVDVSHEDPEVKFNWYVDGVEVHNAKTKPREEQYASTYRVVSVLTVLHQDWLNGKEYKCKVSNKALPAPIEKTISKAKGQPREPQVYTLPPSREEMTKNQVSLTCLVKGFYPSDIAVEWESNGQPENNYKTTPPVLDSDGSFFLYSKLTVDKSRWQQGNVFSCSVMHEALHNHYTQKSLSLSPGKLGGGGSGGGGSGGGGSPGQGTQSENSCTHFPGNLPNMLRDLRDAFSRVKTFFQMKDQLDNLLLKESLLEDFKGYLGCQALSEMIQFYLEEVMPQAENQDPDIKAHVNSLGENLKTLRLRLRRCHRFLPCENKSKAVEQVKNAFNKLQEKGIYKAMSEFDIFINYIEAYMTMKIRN
light: DIQMTQSPSSLSASVGDRVTITCRAGQDVYKAVAWYQQKPGKAPKLLIYWSTNLYSGVPSRFSGSGSGTDFTLTISSLQPEDFATYYCQQGSTWPLTFGQGTKVEIKRTVAAPSVFIFPPSDEQLKSGTASVVCLLNNFYPREAKVQWKVDNALQSGNSQESVTEQDSKDSTYSLSSTLTLSKADYEKHKVYACEVTHQGLSSPVTKSFNRGEC
As for B3, the “IC50, blocking PD-1/PD-L1 signaling” value in assay [3] turned out to be 4.22 nM. The EC50 with IL10Rα-Fc fusion protein came out at 94.3 nM; in assay [2], 0.0798 nM. For the same molecule, the half-maximal inhibitory concentration (IC50) in assay [1] was found to be 0.061 nM.

B4: PHS102.YT7H/IL10 (antibody, human IgG1, kappa, N297A)
heavy: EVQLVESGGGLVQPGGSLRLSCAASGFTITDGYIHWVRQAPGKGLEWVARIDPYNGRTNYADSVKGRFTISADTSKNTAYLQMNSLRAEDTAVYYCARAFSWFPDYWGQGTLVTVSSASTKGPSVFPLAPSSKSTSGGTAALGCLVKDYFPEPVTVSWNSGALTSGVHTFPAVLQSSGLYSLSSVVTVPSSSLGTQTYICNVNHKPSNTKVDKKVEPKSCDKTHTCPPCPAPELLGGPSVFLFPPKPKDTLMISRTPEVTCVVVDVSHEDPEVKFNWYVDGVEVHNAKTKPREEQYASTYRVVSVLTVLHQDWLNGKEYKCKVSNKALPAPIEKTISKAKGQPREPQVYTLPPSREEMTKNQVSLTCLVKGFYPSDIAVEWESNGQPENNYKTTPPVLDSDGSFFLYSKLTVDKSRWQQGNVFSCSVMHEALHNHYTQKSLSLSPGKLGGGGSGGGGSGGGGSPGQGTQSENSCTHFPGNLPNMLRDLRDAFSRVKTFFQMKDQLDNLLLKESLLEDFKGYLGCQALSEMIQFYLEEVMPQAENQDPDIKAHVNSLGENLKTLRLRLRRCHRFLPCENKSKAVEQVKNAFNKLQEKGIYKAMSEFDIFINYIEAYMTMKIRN
light: DIQMTQSPSSLSASVGDRVTITCRAGQDVYKAVAWYQQKPGKAPKLLIYWSTNLYSGVPSRFSGSGSGTDFTLTISSLQPEDFATYYCQQHGNAPITFGQGTKVEIKRTVAAPSVFIFPPSDEQLKSGTASVVCLLNNFYPREAKVQWKVDNALQSGNSQESVTEQDSKDSTYSLSSTLTLSKADYEKHKVYACEVTHQGLSSPVTKSFNRGEC
Regarding B4, the “IC50, blocking PD-1/PD-L1 signaling” value in assay [3] came out at 2.47 nM.

B5: PHS102.YT7A/IL10 (antibody, human IgG1, kappa, N297A)
heavy: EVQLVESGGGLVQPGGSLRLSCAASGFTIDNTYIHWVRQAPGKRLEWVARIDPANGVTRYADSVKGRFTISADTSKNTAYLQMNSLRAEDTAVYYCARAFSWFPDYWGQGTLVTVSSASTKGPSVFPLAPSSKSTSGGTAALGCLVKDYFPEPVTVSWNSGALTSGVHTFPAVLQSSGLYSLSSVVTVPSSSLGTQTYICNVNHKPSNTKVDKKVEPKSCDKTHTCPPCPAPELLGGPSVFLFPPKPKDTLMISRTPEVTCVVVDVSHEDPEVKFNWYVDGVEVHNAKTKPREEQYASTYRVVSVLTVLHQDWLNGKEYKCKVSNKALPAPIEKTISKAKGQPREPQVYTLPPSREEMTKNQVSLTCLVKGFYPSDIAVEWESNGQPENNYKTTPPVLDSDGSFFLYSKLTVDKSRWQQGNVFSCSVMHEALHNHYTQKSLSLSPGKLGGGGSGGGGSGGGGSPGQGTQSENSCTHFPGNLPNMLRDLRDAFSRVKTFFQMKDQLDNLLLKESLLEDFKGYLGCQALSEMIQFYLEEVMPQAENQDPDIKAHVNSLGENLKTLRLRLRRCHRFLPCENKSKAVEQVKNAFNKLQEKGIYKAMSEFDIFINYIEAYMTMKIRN
light: DIQMTQSPSSLSASVGDRVTITCRAGQDVYKAVAWYQQKPGKAPKLLIYWSTNLYSGVPSRFSGSGSGTDFTLTISSLQPEDFATYYCQQYGIAPPTFGQGTKVEIKRTVAAPSVFIFPPSDEQLKSGTASVVCLLNNFYPREAKVQWKVDNALQSGNSQESVTEQDSKDSTYSLSSTLTLSKADYEKHKVYACEVTHQGLSSPVTKSFNRGEC
With B5, in assay [3], the “IC50, blocking PD-1/PD-L1 signaling” value was 4.87 nM.

B6: PHS219/IL10 (antibody, human IgG1, kappa, N297A)
heavy: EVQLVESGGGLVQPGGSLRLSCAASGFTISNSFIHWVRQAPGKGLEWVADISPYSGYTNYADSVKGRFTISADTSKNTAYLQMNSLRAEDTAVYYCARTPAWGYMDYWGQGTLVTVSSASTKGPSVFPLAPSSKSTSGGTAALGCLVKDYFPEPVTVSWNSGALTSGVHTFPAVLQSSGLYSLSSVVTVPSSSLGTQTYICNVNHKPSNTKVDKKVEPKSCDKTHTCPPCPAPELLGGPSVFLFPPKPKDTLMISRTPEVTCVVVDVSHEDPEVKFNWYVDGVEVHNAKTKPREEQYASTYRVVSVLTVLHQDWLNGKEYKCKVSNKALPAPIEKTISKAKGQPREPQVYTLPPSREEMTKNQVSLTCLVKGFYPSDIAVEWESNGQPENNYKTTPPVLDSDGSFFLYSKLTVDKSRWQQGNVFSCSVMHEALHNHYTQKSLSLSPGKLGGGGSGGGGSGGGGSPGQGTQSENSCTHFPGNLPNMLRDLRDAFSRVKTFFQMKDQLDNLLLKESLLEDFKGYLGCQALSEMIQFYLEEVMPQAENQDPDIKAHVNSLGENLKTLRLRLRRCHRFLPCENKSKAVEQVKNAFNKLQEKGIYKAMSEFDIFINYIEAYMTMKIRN
light: DIQMTQSPSSLSASVGDRVTITCRASQDVSSSVAWYQQKPGKAQKLLISWATSLYSGVPSRFSGSGSGTDFTLTISSLQPEDFATYYCQQYNNFPYTFGQGTKVEIKRTVAAPSVFIFPPSDEQLKSGTASVVCLLNNFYPREAKVQWKVDNALQSGNSQESVTEQDSKDSTYSLSSTLTLSKADYEKHKVYACEVTHQGLSSPVTKSFNRGEC
As to B6, the EC50 with IL10Rα-Fc fusion protein worked out at 66.3 nM; in assay [2] it was 0.164 nM. In addition, the IC50 in assay [1] was 1.2 nM.

B7: PHS219 (antibody, human IgG1, kappa, N297A)
heavy: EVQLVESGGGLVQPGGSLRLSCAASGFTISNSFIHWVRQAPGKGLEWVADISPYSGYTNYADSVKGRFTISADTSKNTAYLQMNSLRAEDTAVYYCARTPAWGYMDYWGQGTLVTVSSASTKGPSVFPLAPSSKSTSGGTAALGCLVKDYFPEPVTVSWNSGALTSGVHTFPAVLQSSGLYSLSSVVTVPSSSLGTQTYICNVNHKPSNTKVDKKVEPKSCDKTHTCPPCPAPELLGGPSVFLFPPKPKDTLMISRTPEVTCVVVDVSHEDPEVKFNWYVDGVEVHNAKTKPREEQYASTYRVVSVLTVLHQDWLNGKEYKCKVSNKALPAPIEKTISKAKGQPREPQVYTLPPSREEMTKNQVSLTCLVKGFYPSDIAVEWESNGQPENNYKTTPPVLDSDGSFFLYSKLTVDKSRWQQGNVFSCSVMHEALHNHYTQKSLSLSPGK
light: DIQMTQSPSSLSASVGDRVTITCRASQDVSSSVAWYQQKPGKAQKLLISWATSLYSGVPSRFSGSGSGTDFTLTISSLQPEDFATYYCQQYNNFPYTFGQGTKVEIKRTVAAPSVFIFPPSDEQLKSGTASVVCLLNNFYPREAKVQWKVDNALQSGNSQESVTEQDSKDSTYSLSSTLTLSKADYEKHKVYACEVTHQGLSSPVTKSFNRGEC
With B7, the IC50 in assay [1] turned out to be 38900 nM. Moreover, in assay [2], the 50% effective concentration (EC50) was 0.204 nM.

B8: Durvalumab/IL10 (antibody, human IgG1, kappa, N297A)
heavy: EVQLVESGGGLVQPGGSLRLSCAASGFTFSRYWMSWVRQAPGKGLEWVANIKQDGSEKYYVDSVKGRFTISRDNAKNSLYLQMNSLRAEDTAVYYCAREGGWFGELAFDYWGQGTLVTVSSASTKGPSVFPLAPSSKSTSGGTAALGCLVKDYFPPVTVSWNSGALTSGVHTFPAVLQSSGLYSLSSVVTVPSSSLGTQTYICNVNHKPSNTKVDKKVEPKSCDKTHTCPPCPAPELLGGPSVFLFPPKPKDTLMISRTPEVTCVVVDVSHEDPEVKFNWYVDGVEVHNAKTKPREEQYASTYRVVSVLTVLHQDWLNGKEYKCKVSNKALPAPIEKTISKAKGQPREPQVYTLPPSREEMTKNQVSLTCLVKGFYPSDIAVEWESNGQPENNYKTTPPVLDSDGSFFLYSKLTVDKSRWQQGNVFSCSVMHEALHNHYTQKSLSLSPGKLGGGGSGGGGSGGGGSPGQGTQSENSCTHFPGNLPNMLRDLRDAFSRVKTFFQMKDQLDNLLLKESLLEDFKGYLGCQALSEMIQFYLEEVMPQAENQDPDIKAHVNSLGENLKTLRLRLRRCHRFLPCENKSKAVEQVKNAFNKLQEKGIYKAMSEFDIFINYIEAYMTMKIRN
light: EIVLTQSPGTLSLSPGERATLSCRASQRVSSSYLAWYQQKPGQAPRLLIYDASSRATGIPDRFSGSGSGTDFTLTISRLEPEDFAWYYCQQYGSLPWTFGQGTKVEIKRTVAAPSVFIFPPSDEQLKSGTASVVCLLNNFYPREAKVQWKVDNALQSGNSQESVTEQDSKDSTYSLSSTLTLSKADYEKHKVYACEVTHQGLSSPVTKSFNRGEC
As for B8, the values for the EC50 (with IL10Rα-Fc fusion protein; in assay [2]) were 37.5 nM and 0.121 nM, respectively. Besides, in assay [1], the 50% inhibitory concentration (IC50) came out at 0.188 nM.

B9: Avelumab/IL10 (antibody, human IgG1, lambda)
heavy: not shown
light: QSALTQPASVSGSPGQSITISCTGTSSDVGGYNYVSWYQQHPGKAPKLMIYDVSNRPSGVSNRFSGSKSGNTASLTISGLQAEDEADYYCSSYTSSSTRVFGTGTKVTVLGQPKANPTVTLFPPSSEELQANKATLVCLISDFYPGAVTVAWKADGSPVKAGVETTKPSKQSNNKYAASSYLSLTPEQWKSHRSYSCQVTHEGSTVEKTVAPTECS
In the assay with IL10Rα-Fc fusion protein, B9 returned a 50% effective concentration (EC50) of 25.9 nM.

B10: PHS102.YP7G (antibody, human IgG1, kappa, N297A, V domains shown)
VH: EVQLVESGGGLVQPGGSLRLSCAASGFTIDDTYIHWVRQAPGKGLEWVARIDPANGMTRYADSVKGRFMISADTSKNTAYLQMNSLRAEDTAVYYCARAFSWFPDYWGQGTLVTVSS
VL: DIQMTQSPSSLSASVGDRVTITCRAGQDVYKAVAWYQQKPGKAPKLLIYWSTNLYSGVPSRFSGSGSGTDFTLTISSLQPEDFATYYCQQGSTWPLTFGQGTKVEIKR
notes: as for B2
With B10, in assay [4], the Kd is 5.51 nM, the koff is 0.00136 s⁻¹ and the kon came out at 247000 M⁻¹ s⁻¹.

B11: PHS102.YT10H (antibody, human IgG1, kappa, N297A, V domains shown)
VH: EVQLVESGGGLVQPGGSLRLSCAASGFTISDAYIHWVRQAPGKGLEWVARIEPLSGRTDYADSVKGRFTISADTSKNTAYLQMNSLRAEDTAVYYCARAFSWFMDYWGQGTLVTVSS
VL: DIQMTQSPSSLSASVGDRVTITCRAGQDVYKAVAWYQQKPGKAPKLLIYWSTNLYSGVPSRFSGSGSGTDFTLMISSLQPEDFATYYCQQHDKTPTTFGQGTKVEIKR
notes: as for B2
With B11, in assay [4], the dissociation constant (Kd) was 1.92 nM, the koff came to 0.00067 s⁻¹ and the kon stood at 350000 M⁻¹ s⁻¹.

B12: PHS102.HSYPP411C (antibody, human IgG1, kappa, N297A, V domains shown)
VH: EVQLVESGGGLVQPGGSLRLSCAASGFTIDNTYIHWVRQAPGKGLEWVARIDPANGKTTYADSVKGRFTISADTSKNTANLQMNSLRAEDTAVYYCARSFSWWADYWGQGTLVTVSS
VL: DIQMTQSPSSLSASVGDRVTITCRAGQDVYKAVAWYQQKPGKAPKLLIYWSTNLYSGVPSRFSGSGSGTDFTLTISSLQPEDFATYYCQQFNLQPTTFGQGTKVEIKR
notes: as for B2
Regarding B12, the “IC50, blocking PD-1/PD-L1 signaling” value in assay [3] came out at 3.74 nM. Further, in assay [4], the Kd amounted to 2.03 nM, the koff amounted to 0.000653 s⁻¹ and the kon turned out to be 321000 M⁻¹ s⁻¹.

B13: PHS102.YP11F (antibody, human IgG1, kappa, N297A, V domains shown)
VH: EVQLVESGGGLVQPGGSLRLSCAASGFTIDNTYIHWVRQAPGKGLEWVARIDPVSGRTRYADSVKGRFTISADTSKNTADLQMNSLRAEDTAVYYCARAFSWFPDYWGQGTLVTVSS
VL: DIQMTQSPSSLSASVGDRVTITCRAGQDVYKAVAWYQQKPGKAPKLLIYWSTNLYSGVPSRFSGSGSGTDFTLTISSLQPEDFATYYCQQFGATPITFGQGTKVEIKR
notes: as for B2
With B13, in assay [4], the Kd is 1.84 nM, the koff came to 0.000615 s⁻¹ and the association rate constant (kon) was found to be 334000 M⁻¹ s⁻¹.

B14: PHS102.HSYPP31F (antibody, human IgG1, kappa, N297A, V domains shown)
VH: EVQLVESGGGLVQPGGSLRLSCAASGFTIEDSYIHWVRQAPGKGLEWVARIDPITGLTHYADSVKGRFTISADTSKNTAYLQMNSLRAEDTAVYYCARAFSWFPDYWGQGTLVTVSS
VL: DIQMTQSPSSLSASVGDRVTITCRAGQDVYKAVAWYQQKPGKAPKLLIYWSTNLYSGVPSRFSGSGSGTDFTLTISSLQPEDFATYYCQQIMEPPVTFGQGTKVEIKR
notes: as for B2
Turning to B14, the “IC50, blocking PD-1/PD-L1 signaling” value in assay [3] came to 3.56 nM. Further, in assay [4], the Kd is 1.88 nM, the koff was found to be 0.000542 s⁻¹ and the association rate constant (kon) came to 288000 M⁻¹ s⁻¹.

B15: PHS102.YT6D (antibody, human IgG1, kappa, N297A, V domains shown)
VH: EVQLVESGGGLVQPGGSLRLSCAASGFTISDGYIHWVRQAPGKGLEWVARIDPLTGRTMYADSVKGRFTISADTSKNTAYLQMNSLRAEDTAVYYCARAFSWWPDYWGQGTLVTVSS
VL: DIQMTQSPSSLSASVGDRVTITCRAGQDVYKAVAWYQQKPGKAPKLLIYWSTNLYSGVPSRFSGSGSGTDFTLTISSLQPEDFATYYCQQIMSPPPTFGQGTKVEIKR
As for B15, in assay [4], the dissociation constant (Kd) turned out to be 2.16 nM, the koff was found to be 0.000713 s⁻¹ and the on-rate constant (kon) came out at 330000 M⁻¹ s⁻¹.

B16: PHS102.YT7H (antibody, human IgG1, kappa, N297A)
heavy: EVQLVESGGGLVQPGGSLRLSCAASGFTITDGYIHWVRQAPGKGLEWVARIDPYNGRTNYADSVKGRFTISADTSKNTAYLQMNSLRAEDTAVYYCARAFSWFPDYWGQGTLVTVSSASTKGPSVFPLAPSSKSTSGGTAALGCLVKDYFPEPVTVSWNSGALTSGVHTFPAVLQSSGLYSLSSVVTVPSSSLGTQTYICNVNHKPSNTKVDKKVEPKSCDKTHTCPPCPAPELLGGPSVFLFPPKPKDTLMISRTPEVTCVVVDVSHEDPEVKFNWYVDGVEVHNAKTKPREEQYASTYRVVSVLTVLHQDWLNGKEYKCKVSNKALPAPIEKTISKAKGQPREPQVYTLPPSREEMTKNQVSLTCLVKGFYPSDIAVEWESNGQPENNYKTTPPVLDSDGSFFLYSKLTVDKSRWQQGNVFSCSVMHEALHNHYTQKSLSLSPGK
light: DIQMTQSPSSLSASVGDRVTITCRAGQDVYKAVAWYQQKPGKAPKLLIYWSTNLYSGVPSRFSGSGSGTDFTLTISSLQPEDFATYYCQQHGNAPITFGQGTKVEIKRTVAAPSVFIFPPSDEQLKSGTASVVCLLNNFYPREAKVQWKVDNALQSGNSQESVTEQDSKDSTYSLSSTLTLSKADYEKHKVYACEVTHQGLSSPVTKSFNRGEC
notes: as for B2
On to B16, for which the “IC50, blocking PD-1/PD-L1 signaling” value in assay [3] came to 3.48 nM. In addition, in assay [4], the equilibrium dissociation constant (Kd) was found to be 6.16 nM, the koff is 0.00125 s⁻¹ and the kon came to 203000 M⁻¹ s⁻¹.
